Results published in patent publication US20050250090A1, “Assay systems and methods for detecting molecules that interact with SK2 channels” (priority 2003, published 2005).

Molecular target: human SK2 isoform hSK2A+ (small-conductance calcium-activated potassium channel protein), stably exp (human), Q9H2S1
Assay: cell-based or functional assay

Sequence of human SK2 isoform hSK2A+ (small-conductance calcium-activated potassium channel protein), stably exp (human), Q9H2S1 (Q9H2S1 other isoform, or with tags, fused parts or gaps): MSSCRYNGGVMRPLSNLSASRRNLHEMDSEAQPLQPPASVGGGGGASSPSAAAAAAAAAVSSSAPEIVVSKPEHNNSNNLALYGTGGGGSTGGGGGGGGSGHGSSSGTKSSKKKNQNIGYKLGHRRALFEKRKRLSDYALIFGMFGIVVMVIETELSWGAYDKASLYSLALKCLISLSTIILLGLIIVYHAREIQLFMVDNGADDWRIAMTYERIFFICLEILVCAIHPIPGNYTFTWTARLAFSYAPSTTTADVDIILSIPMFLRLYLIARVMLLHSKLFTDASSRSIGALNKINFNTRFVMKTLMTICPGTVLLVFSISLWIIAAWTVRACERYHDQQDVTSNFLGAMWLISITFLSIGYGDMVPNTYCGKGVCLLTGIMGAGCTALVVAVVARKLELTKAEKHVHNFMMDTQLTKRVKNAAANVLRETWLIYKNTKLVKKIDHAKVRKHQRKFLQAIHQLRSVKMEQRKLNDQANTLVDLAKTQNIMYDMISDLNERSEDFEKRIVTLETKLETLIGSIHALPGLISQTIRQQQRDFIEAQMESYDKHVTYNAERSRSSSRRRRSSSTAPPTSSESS

For AFCNLRMCQLSCRSLGLLGKCIGDKCECVKH (modifications not checked) [scyllatoxin, P16341 1-31], the magnitude of the ATP/Tg induced decrease in fluorescence; concentration printed as 'tested at' (FIG. 9 concentration series) was 1.1 nM.
